According to publication PMC4382335:
Each block holds one substance with its values, some of them ahead of it.

Columns and labels:
[1] = target: papain from papaia latex (papaia (from papaia latex)) (UniProt P00784)
[2] = target: papain from papaia latex (papaia (from papaia latex)) (UniProt P00784); remark: listed apart in the source
[3] = target: papain from papaia latex (papaia (from papaia latex)) (UniProt P00784); remark: listed apart in the source
[4] = target: papain from papaia latex (papaia (from papaia latex)) (UniProt P00784); remark: listed apart in the source
[5] = target: TcCYS4-His-tag, recombinant cystatin TcCYS4 from Theobroma cacao (Theobroma cacao); test: SEC; as a2, samples treated in the range from 55 to 75°C for 10 min; 20 uM, 100 mM phosphate buffer pH 6, 150 mM NaCl, Superdex 75 5/150
[6] = target: TcCYS4-His-tag, recombinant cystatin TcCYS4 from Theobroma cacao (Theobroma cacao); test: SEC; TcCYS4 at 20 uM in 100 mM phosphate buffer pH 6, 150 mM NaCl, treated at different temperatures for 10 min (all heat treatments), Superdex 75 5/150, LMW standards
[7] = target: papain from papaia latex (papaia (from papaia latex)) (UniProt P00784); remark: listed apart in the source

Chain of UniProt P00784 (P00784 134-345): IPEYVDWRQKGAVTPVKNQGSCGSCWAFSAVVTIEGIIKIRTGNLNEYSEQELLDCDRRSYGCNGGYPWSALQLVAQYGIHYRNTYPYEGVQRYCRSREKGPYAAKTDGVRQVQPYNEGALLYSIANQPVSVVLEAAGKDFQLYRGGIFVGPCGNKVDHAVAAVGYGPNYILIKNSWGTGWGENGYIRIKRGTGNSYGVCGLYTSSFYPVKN

papain inhibition rate after treatment of the cystatin for 10 min at temperatures up to 90°C [1]: 100%
Substance: recombinant cystatin TcCYS3 from Theobroma cacao (natural protein)

papain inhibitory activity after treatment of the cystatin for 10 min at different temperatures up to 90°C; 70% of activity at 65°C [2]: > 100% | percentage of inhibition of papain at pH values of the reaction medium from 2 to 10.5 (20% at pH 3, 70% at pH 3.5, about 90% from pH 4 to 9, about 80% at pH 10.5) [3]: 90% | residual activity of papain with TcCYS4 treated at 65°C for 0 to 600 s (plateau after 300 s) [4]: 60% | stoichiometry N [5]: 3 | stoichiometry N [6]: 2
Substance: TcCYS4-His-tag, recombinant cystatin TcCYS4 from Theobroma cacao (natural protein)

papain inhibitory activity after treatment of the cystatin for 10 min at different temperatures up to 90°C; around 52% at 65°C [7]: 65%
Substance: recombinant cystatin TcCYS2 from Theobroma cacao (natural protein)
